Data reported in the supplement of paper PMC7877785.
± gives the uncertainty stated by the source.

Experiment: self-splicing fitness, log relative to wild type (ln ratio); higher = more splicing; Tetrahymena group I intron in knt gene, E. coli kanamycin selection, DiMSum; sequences stand for … in CUCUCU…GGAGGGAAAAGUUAUCAGGCAUGCACCUGGUAGCUAGUCUUUAAACCAAUAGAUUGCAUCGGUUUAAAAGGCAAGACCGUCAAAUUGCGGGAAAGGGGUCAACAGCCGUUCAGUACCAAGUCUCAGGGGAAACUUUGAGAUGGCCUUGCAAAGGGUAUGGUAAUAAGCUGACGGACAUGGUCCUAACCACGCAGCCAAGUCCUAAGUCAACAGAUCUUCUGUUGAUAUGGAUGCAGUUCACAGACUAAAUGUCGGUCGGGGAAGAUGUAUUCUUCUCAUAAGAUAUAGUCGGACCUCUCCUUAAUGGGAGCUAGCGGAUGAAGUGAUGCAACACUGGAGCCGCUGGGAACUAAUUUGUAUGCGAAAGUAUAUUGAUUAGUUUUGGAGUACUCGUGGUCG
Summary of the method: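 Library with all eight P1ex-region intron nucleotides randomised, intron inside the knt kanamycin-resistance gene on pET-22b(+), in E. coli BL21(DE3). Cells grew overnight at 37°C or 30°C on LB agar with or without 25 μg/mL kanamycin (plus 100 μg/mL carbenicillin, 50 μM IPTG, 0.2% rhamnose), in six replicate transformations. Pooled colonies were amplicon-sequenced on Illumina HiSeq 2500. DiMSum fitness is the error-weighted combination of wild-type-normalised replicate fold changes, kanamycin versus none.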

Row | Sequence | self-splicing fitness (ln) (30 °C) | self-splicing fitness (ln) (37 °C)
1 | GCCUAGCAAUAUUACGGGAA | -0.327 ± 0.091 | 0.158 ± 0.11
2 | GCCUAGCAAUAUUACGGGGA | -0.34 ± 0.067 | -0.0121 ± 0.09
3 | GCCUAGCAAUAUUACGGGUA | -0.787 ± 0.072 | 0.611 ± 0.067
4 | GCCUAGCAAUAUUACGGUGA | -1.09 ± 0.067 | -0.113 ± 0.073
5 | GCCUAGCAAUAUUACGUCAC | -3.49 ± 0.24 | -2.04 ± 0.22
6 | GCCUAGCAAUAUUACGUCUA | -3.26 ± 0.38 | -1.73 ± 0.2
7 | GCCUAGCAAUAUUACGUGCC | -3.38 ± 0.23 | -2.08 ± 0.23
8 | GCCUAGCAAUAUUACGUUGG | -3.78 ± 0.32 | -2.7 ± 0.25
9 | GCGAAGCAAUAUUACGACAA | -2.21 ± 0.18 | -0.672 ± 0.12
10 | GCGAAGCAAUAUUACGACAG | -3.79 ± 0.16 | -1.97 ± 0.21
11 | GCGAAGCAAUAUUACGACCU | -0.269 ± 0.073 | -0.573 ± 0.086
12 | GCGAAGCAAUAUUACGACGA | 0.0165 ± 0.18 | 0.163 ± 0.2
13 | GCGAAGCAAUAUUACGACUG | -1.72 ± 0.14 | -0.66 ± 0.14
14 | GCGAAGCAAUAUUACGAGCC | -3.17 ± 0.23 | 
15 | GCGAAGCAAUAUUACGAGGU | -2.98 ± 0.2 | -2.76 ± 0.33
16 | GCGAAGCAAUAUUACGCAAA | -3.14 ± 0.22 | -2.07 ± 0.17
17 | GCGAAGCAAUAUUACGCGCC |  | -1.73 ± 0.4
18 | GCGAAGCAAUAUUACGCUUA | -2.1 ± 0.21 | -0.759 ± 0.2
19 | GCGAAGCAAUAUUACGGAGA | -2.88 ± 0.26 | -2.87 ± 0.44
20 | GCGAAGCAAUAUUACGGCAA | -0.999 ± 0.16 | -0.804 ± 0.16
21 | GCGAAGCAAUAUUACGGGUC |  | -0.782 ± 0.19
22 | GCGAAGCAAUAUUACGGUAU | -3.35 ± 0.18 | -0.774 ± 0.1
23 | GCGAAGCAAUAUUACGGUGU | -3.59 ± 0.14 | -2.66 ± 0.13
24 | GCGAAGCAAUAUUACGUCAA | -3.02 ± 0.19 | -2.05 ± 0.15
25 | GCGAAGCAAUAUUACGUCAC |  | -2.82 ± 0.3

Row | Sequence | self-splicing fitness (ln) (30 °C) | self-splicing fitness (ln) (37 °C)
26 | GCGAAGCAAUAUUACGUCAG | -3.41 ± 0.2 | -2.52 ± 0.26
27 | GCGAAGCAAUAUUACGUCCA | -1.16 ± 0.086 | -0.269 ± 0.11
28 | GCGAAGCAAUAUUACGUGUG | -2.61 ± 0.12 | -1.67 ± 0.11
29 | GCGAAGCAAUAUUACGUUGA | -2.59 ± 0.15 | -2.33 ± 0.14
30 | GCGAAGCAAUAUUACGUUGC |  | -1.98 ± 0.2
31 | GCGAAGCAAUAUUACGUUGU | -3.58 ± 0.21 | -2.58 ± 0.18
32 | GCGAAGCAAUAUUACGUUUC | -2.9 ± 0.2 | 
33 | GCGCAGCAAUAUUACGAACG | -1.37 ± 0.11 | -0.329 ± 0.17
34 | GCGCAGCAAUAUUACGACGG | -1.13 ± 0.14 | -0.906 ± 0.17
35 | GCGCAGCAAUAUUACGAGAC | -3.09 ± 0.23 | -1.18 ± 0.18
36 | GCGCAGCAAUAUUACGAGUU | -0.986 ± 0.066 | -0.241 ± 0.1
37 | GCGCAGCAAUAUUACGCAGG | -3.86 ± 0.31 | -2.09 ± 0.34
38 | GCGCAGCAAUAUUACGCAUA | -0.539 ± 0.1 | -0.285 ± 0.1
39 | GCGCAGCAAUAUUACGCCAG | -2.22 ± 0.26 | -2.28 ± 0.47
40 | GCGCAGCAAUAUUACGCGAG | -1.66 ± 0.08 | -0.987 ± 0.089
41 | GCGCAGCAAUAUUACGCUGU | -3.56 ± 0.23 | -2.86 ± 0.34
42 | GCGCAGCAAUAUUACGGAAG | -1.64 ± 0.12 | -1.66 ± 0.11
43 | GCGCAGCAAUAUUACGGACA | -1.45 ± 0.085 | -0.514 ± 0.089
44 | GCGCAGCAAUAUUACGGAGU | -2 ± 0.11 | -0.744 ± 0.13
45 | GCGCAGCAAUAUUACGGCCA | -0.728 ± 0.12 | -1.03 ± 0.12
46 | GCGCAGCAAUAUUACGGCGU | -3.18 ± 0.33 | 
47 | GCGCAGCAAUAUUACGGGCC | -2.96 ± 0.22 | -3.25 ± 0.27
48 | GCGCAGCAAUAUUACGGGUG | -1.87 ± 0.083 | -1.65 ± 0.11
49 | GCGCAGCAAUAUUACGUCUG | -2.4 ± 0.14 | -2.99 ± 0.3
50 | GCGCAGCAAUAUUACGUGAC | -1.83 ± 0.095 | -1.03 ± 0.087

Row | Sequence | self-splicing fitness (ln) (30 °C) | self-splicing fitness (ln) (37 °C)
51 | GCGCAGCAAUAUUACGUGCC | -3.26 ± 0.18 | -2.75 ± 0.29
52 | GCGCAGCAAUAUUACGUGCG | -4.36 ± 0.28 | -2.7 ± 0.21
53 | GCGCAGCAAUAUUACGUUAU | -0.78 ± 0.048 | -0.0311 ± 0.064
54 | GCGGAGCAAUAUUACGAACU |  | -0.902 ± 0.47
55 | GCGGAGCAAUAUUACGAAGU | -3.58 ± 0.43 | -2.08 ± 0.36
56 | GCGGAGCAAUAUUACGAAUU |  | -1.1 ± 0.33
57 | GCGGAGCAAUAUUACGAGAC | -2.85 ± 0.38 | 
58 | GCGGAGCAAUAUUACGAGCU | -2.02 ± 0.27 | 0.307 ± 0.24
59 | GCGGAGCAAUAUUACGAUGC | -1.81 ± 0.37 | 
60 | GCGGAGCAAUAUUACGAUUA | -2.93 ± 0.22 | -1.73 ± 0.23
61 | GCGGAGCAAUAUUACGCAGU | -3.68 ± 0.45 | -1.79 ± 0.39
62 | GCGGAGCAAUAUUACGCGCA | -2.93 ± 0.3 | -0.701 ± 0.17
63 | GCGGAGCAAUAUUACGCGUA | -2.77 ± 0.29 | -1.53 ± 0.15
64 | GCGGAGCAAUAUUACGGCAA |  | -1.74 ± 0.18
65 | GCGGAGCAAUAUUACGGGGA | -2.69 ± 0.39 | -3.38 ± 0.42
66 | GCGGAGCAAUAUUACGGUUU |  | -2.53 ± 0.39
67 | GCGGAGCAAUAUUACGUAGG | -4.18 ± 0.34 | -0.489 ± 0.15
68 | GCGGAGCAAUAUUACGUGCA | -2.52 ± 0.29 | -0.813 ± 0.18
69 | GCGGAGCAAUAUUACGUUUA |  | -2.33 ± 0.37
70 | GCGGAGCAAUAUUACGUUUG | -2.86 ± 0.17 | -2.48 ± 0.27
71 | GCGUAGCAAUAUUACGAACC |  | -1.63 ± 0.36
72 | GCGUAGCAAUAUUACGACCG | -1.5 ± 0.16 | -0.0305 ± 0.2
73 | GCGUAGCAAUAUUACGAGAU | -2.22 ± 0.12 | -2.25 ± 0.17
74 | GCGUAGCAAUAUUACGAGUU | -2.87 ± 0.092 | -0.803 ± 0.097
75 | GCGUAGCAAUAUUACGAUUG | -2.26 ± 0.18 | -1.98 ± 0.21

Row | Sequence | self-splicing fitness (ln) (30 °C) | self-splicing fitness (ln) (37 °C)
76 | GCGUAGCAAUAUUACGCACA |  | -1.71 ± 0.47
77 | GCGUAGCAAUAUUACGCCUU | -3.7 ± 0.33 | -1.3 ± 0.21
78 | GCGUAGCAAUAUUACGCGAC | -2.5 ± 0.11 | -1.42 ± 0.12
79 | GCGUAGCAAUAUUACGCUUU | -3.68 ± 0.22 | -3.98 ± 0.19
80 | GCGUAGCAAUAUUACGGAAG | -3.56 ± 0.31 | -1.98 ± 0.33
81 | GCGUAGCAAUAUUACGGCCC | 0.00127 ± 0.32 | -2.25 ± 0.39
82 | GCGUAGCAAUAUUACGGGUC | -3.34 ± 0.29 | -1.54 ± 0.21
83 | GCGUAGCAAUAUUACGGUGG | -4.1 ± 0.31 | -3.39 ± 0.39
84 | GCGUAGCAAUAUUACGUAUC | -3.35 ± 0.38 | -0.739 ± 0.2
85 | GCGUAGCAAUAUUACGUGAA | -2.92 ± 0.15 | -1.49 ± 0.13
86 | GCGUAGCAAUAUUACGUGCG | -4.01 ± 0.17 | -1.62 ± 0.14
87 | GCGUAGCAAUAUUACGUUUA | -2.16 ± 0.15 | -2.13 ± 0.15
88 | GCUAAGCAAUAUUACGAAUG | -0.647 ± 0.082 | -0.433 ± 0.11
89 | GCUAAGCAAUAUUACGAAUU | -2.39 ± 0.18 | -0.0664 ± 0.13
90 | GCUAAGCAAUAUUACGACUA | -1.7 ± 0.19 | -0.865 ± 0.23
91 | GCUAAGCAAUAUUACGAGGU | -2.03 ± 0.19 | -1.51 ± 0.15
92 | GCUAAGCAAUAUUACGAGUG | -1.09 ± 0.048 | -0.811 ± 0.06
93 | GCUAAGCAAUAUUACGAGUU | -1.33 ± 0.082 | -0.818 ± 0.11
94 | GCUAAGCAAUAUUACGCAAA | -2.6 ± 0.26 | -0.986 ± 0.17
95 | GCUAAGCAAUAUUACGCAGA | -2.53 ± 0.26 | -0.61 ± 0.21
96 | GCUAAGCAAUAUUACGCAUC | -0.687 ± 0.13 | -1.06 ± 0.21
97 | GCUAAGCAAUAUUACGCGGA | -2.73 ± 0.2 | -1.1 ± 0.15
98 | GCUAAGCAAUAUUACGCGUG | -1.88 ± 0.092 | -1.44 ± 0.12
99 | GCUAAGCAAUAUUACGCGUU | -1.23 ± 0.083 | -0.649 ± 0.1
100 | GCUAAGCAAUAUUACGCUAU | -1.91 ± 0.14 | -2.08 ± 0.17
